This note sets out measurements from paper PMC11592144, “Biochemical Characterization of an Arabinoside Monophosphate Specific 5′-Nucleotidase-like Enzyme from Streptomyces antibioticus” (Biomolecules, 2024).

Substrate in data set [1]: Nc1ncnc2c1ncn2[C@@H]1O[C@H](COP(=O)(O)O)[C@@H](O)[C@@H]1O
The experiment in a line: HPLC of Ara-A formation, Lineweaver-Burk. The class given is biochemical, Streptomyces antibioticus. The conditions noted are these: 50 mM HEPES pH 7.5, 1 mM MgCl2, 0.01-1.5 mM substrate, 0.2 mg/mL PenF. The source says:
HPLC of Ara-A formation, Lineweaver-Burk on PenF

Substrate in data set [2]: Nc1ncnc2c1ncn2[C@H]1C[C@H](O)[C@@H](COP(=O)(O)O)O1
The data set is described as follows: HPLC of deoxyadenosine formation, Lineweaver-Burk. The conditions noted are these: 50 mM HEPES pH 7.5, 1 mM MgCl2, 0.2-2.5 mM substrate, 0.2 mg/mL PenF. The format is biochemical, Streptomyces antibioticus. An excerpt: HPLC of deoxyadenosine formation, Lineweaver-Burk on PenF

B1: PenF (Streptomyces antibioticus) (protein)
chain: MVTLPDRVRAHVLADFATADPAHDIHHLDRVAALAGDIAVLLGADPQTAQVAAYVHDYHRVEEARQGRRPIRPEEARSAVLDVLERSEVPEKLHGTILRAVELTGRYRFGGDELDGEDLIAAAVHDADNLDAMGAVGVGRAFAFGGLLGEPLWEPAAGLKELYTEGETSSVLAHLYEKLVHLEKDMLTEPARRLAAERAFQLHRFAAEFRSQWGEEDVVSHSGGTRVHWDPLTRFLAVTQPEPDGITVTHIGFRGQAMLAFDEQGQPVGVDLLGAPEALTHCVPHAQRSRAWVADAAGGWLLDAEADVVWISISEAPVRRRLTAVGDIEVQLREGKLATLRMHLTEEAPVSVGGEGAP
notes: codon-optimized penF in pET28a (NdeI/XhoI), C-terminal His6 tag, E. coli BL21(DE3), Ni-NTA; about 42 kDa by MALDI-TOF (45 kDa SDS-PAGE)
For the protein B1, in data set [1], the Km came to 71.5 µM, the Vmax is 170 µM/min, the kcat was found to be 0.565 s⁻¹ and the kcat/Km is 7900 M⁻¹ s⁻¹. For the same protein, in data set [2], the Km amounted to 344 µM, the Vmax turned out to be 11.9 µM/min, the kcat came out at 0.04 s⁻¹ and the kcat/Km is 117 M⁻¹ s⁻¹.
